Measurements: patent publication US11453711B2, “Fusion proteins of GLP-1 and GDF15 and conjugates thereof” (BEIJING QL BIOPHARMACEUTICAL CO., LTD., priority 2019, dated 2022)
Where a chain is given by its changes, count along the chain named.

B1: MLC007: fusion polypeptide SEQ ID NO: 254 conjugated with Moiety A at 1K of Linker (conjugate)
chain: HGEGTFTSDVSSYLEEQAAREFIAWLVRGGGKQEPGQEPGQEPGQEPGQEPGQEPGQEPGQEPGAQPGAQPARQGDHCPLGPGRCCRLHTVRASLEDLGWADWVLSPREVQVTMCIGACPSQFRAANLHAQIKTSLHRLRPDTVPAPCCVPASYNPMVLIQRTDTGVSLQTYDDLLARDCHCI
modifications: Moiety A conjugated at linker K1
B2: MLC009: fusion polypeptide SEQ ID NO: 256 conjugated with Moiety A at 15K of Linker (conjugate)
chain: B1 chain with K32G, E46K
modifications: Moiety A conjugated at linker K15
B3: MLC006: fusion polypeptide SEQ ID NO: 253 conjugated with Moiety A at 36K of GLP-1 (conjugate)
chain: B1 chain with G30K, K32G
modifications: Moiety A conjugated at K36
B4: MLC002: fusion polypeptide SEQ ID NO: 249 conjugated with Moiety A at 26K of GLP-1 (conjugate)
chain: B1 chain with R20K, K32G
modifications: Moiety A conjugated at K26
B5: MLC005: fusion polypeptide SEQ ID NO: 252 conjugated with Moiety A at 12K of Linker (conjugate)
chain: B1 chain with K32G, P43K
modifications: Moiety A conjugated at linker K12
B6: MLC008: fusion polypeptide SEQ ID NO: 255 conjugated with Moiety A at 6K of Linker (conjugate)
chain: B1 chain with K32G, Q37K
modifications: Moiety A conjugated at linker K6
B7: MLC004: fusion polypeptide SEQ ID NO: 251 conjugated with Moiety A at 26K of GLP-1 (conjugate)
chain: HGEGTFTSDVSSYLEEQAAKEFIAWLVRGGGGQEPGAQPGQEPGAQPGQEPGAQPGQEPGAQPGQEPGAQPGQEPGAQPGAQPGAQPGAQPGAQPGAQPGAQPGAQPGAQPARQGDHCPLGPGRCCRLHTVRASLEDLGWADWVLSPREVQVTMCIGACPSQFRAANLHAQIKTSLHRLRPDTVPAPCCVPASYNPMVLIQRTDTGVSLQTYDDLLARDCHCI
modifications: Moiety A conjugated at K26

Columns and labels:
[1] = Body weight and food intake in lean C57BL/6 mice, lysine conjugated compounds, 15 nmol/kg daily sc 14 days; assay type: in vivo; conditions: for Body weight reduction at 15 nmol/kg (% reduction compared to vehicle)(Day11) / Cumulative food intake reduction at 15 nmol/kg (% reduction compared to vehicle)(Day11): C57 mice, 15 nmol/kg daily sc; for BW reduction: 15 nmol/kg daily sc 14 days, versus Semaglutide
Method: FIGS. 1A-1F show In vivo activities of fusion proteins. To evaluate the body weight and food intake effects of the fusion proteins, 10 week old male C57BL/6J mice were dosed everyday subcutaneously with 15 nmol/kg protein for 14 days. Food intake and body weight were measured daily. FIGS. 1A and 1B show body weight loss upon protein treatments from Day1 to Day15. […] FIGS. 1D and 1E show cumulative food intake with protein treatments from Day1 to Day15. […] Vehicle: 1.42 mg/mL disodium phosphate dihydrate, 14 mg/mL propylene glycol pH7.4. Data are expressed as mean values and standard error (SEM) for FIGS. 1A, 1B and 1C. n=5 for each treatment group. For FIGS. 1D, 1E and 1F, a pooled food intake was measured for each treatment group.
10 week old male C57BL/6 mice were injected everyday subcutaneously with 15 nmol/kg of the fusion protein conjugates (i.e., MLC002, MLC 004, MLC 005, MLC 006, MLC 007, MLC 008, and MLC 009) for 14 days. Food intake and body weight were measured daily and five animals were used for each treatment group. Body weight (BW) was monitored for each individual animal, but food intake for each group animals was measured together. Day 1 and Day 14 are first day and last day of molecule dosage. % BW loss=100*(BW on Day n-BW on Day 1)/(BW on Day 1). Cumulative food intake on Day n represents sum of food intake from Day 1 to Day n. Data are indicated as mean values and standard error (SEM) or pooled values. Statistical analysis was performed by One-way ANOVA. Body weight reduction on Day 11 is calculated by −1*(% BW loss−% BW loss of vehicle group); Cumulative food intake reduction is calculated by −100*(cumulative food intake-cumulative food intake of vehicle)/cumulative food intake of vehicle.

[2] = Body weight and food intake in C57BL/6 mice, fusion protein conjugates, 30 nmol/kg daily 10 days; assay type: in vivo
Method in brief: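 Male C57BL/6 mice received fusion protein conjugates by daily subcutaneous injection, with dosing running from Day 1 to Day 10. Body weight was recorded daily per animal and food intake daily per group. Body weight reduction was expressed relative to vehicle percent loss from Day 1. Cumulative food intake reduction was expressed as percent decrease versus vehicle.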

[3] = Pharmacokinetic measurement in mouse, single sc dose 30 nmol/kg, plasma ELISA; conditions: for Cmax: read-out: Cmax (nmol/L), single sc dose 30 nmol/kg; for AUC0-24 h / Terminal t1/2 / Tmax: single sc dose 30 nmol/kg
Method: Each fusion protein was injected subcutaneously into C57BL/6 mice (n=3/group) once and plasma samples were collected at designed time points and analyzed by ELISA method. Plasma concentrations are indicated as mean values and standard error (SEM).
6-8 week old male C57BL/6 mice were administrated in a single subcutaneous dose of 30 nmol/kg of the fusion protein conjugates or unconjugated fusion proteins (i.e., MLC002, MLC004, MLC005, MLC006, MLC007, MLC008, MLC009, MLC013, MLC017, MLC047, MLC074, MLC075, MLC089, MLC093, MLC003 and MLC019) (n=3/group). Plasma samples were collected pre-dose (−5 min), 0.5 hr, 1 hr, 2 hr, 4 hr, 6 hr, 8 hr, 12 hr, 24 hr, 48 hr and 72 hr after the injection. The concentrations of the fusion protein conjugates in the plasma were measured by an ELISA assay which has immunoreactivity towards both GDF15 and intact N-terminal of GLP-1. Based on the graph showing plasma concentration of each protein versus time after subcutaneous injection, the pharmacokinetic parameters (including Tmax, Cmax, T1/2, AUC) were calculated by WinNonlin software.

[4] = PK study in non-human primates, single sc dose 5 nmol/kg, plasma ELISA; conditions: monkey, single sc dose 5 nmol/kg
Method: Plasma samples were collected pre-dose (−5 min), 2 hr, 4 hr, 6 hr, 8 hr, 24 hr, 48 hr, 72 hr, 96 hr, 120 hr, 144 hr, 216 hr, 288 hr, 360 hr, 432 hr and 504 hr after the injection. The concentrations of the fusion protein conjugates in the plasma were measured by an ELISA assay which has immunoreactivity towards both GDF15 and intact N-terminal of GLP-1. Based on the graph showing plasma concentration of each protein versus time after subcutaneous injection, the pharmacokinetic parameters (including Tmax, Cmax, T1/2, AUC) were calculated by WinNonlin software.

Molecule	Body weight reduction at 15 nmol/kg (% reduction compared to vehicle)(Day11) [1]	Cumulative food intake reduction at 15 nmol/kg (% reduction compared to vehicle)(Day11) [1]	Body weight reduction at 30 nmol/kg (% reduction compared to vehicle)(Day11) [2]	Cumulative food intake reduction at 30 nmol/kg (% reduction compared to vehicle)(Day11) [2]	BW reduction [1]	Cmax [3]	AUC0-24 h [3]	Terminal t1/2 [3]	Tmax [3]	AUC0-96 h [4]	Terminal t1/2 [4]	Tmax [4]	Cmax ([4]; read-out: Cmax (nmol/L))
Semaglutide [reference compound]	7.2%	23.2%	2.6%	20.9%	–	–	–	–	–	–	–	–	–
B1	11.3%	21.8%	–	–	statistically significantly enhanced BW loss efficacy than Semaglutide	10.4 nmol/L	63.8 nM·h	4.7 h	0.5 h	–	–	–	–
B2	14.6%	23.9%	–	–	statistically significantly enhanced BW loss efficacy than Semaglutide	17 nmol/L	157.8 nM·h	4.2 h	3.3 h	–	–	–	–
B3	9.3%	23.0%	–	–	–	9.9 nmol/L	71.9 nM·h	4.4 h	2.7 h	–	–	–	–
B4	5.0%	7.5%	–	–	–	4.6 nmol/L	36.2 nM·h	5.0 h	1.2 h	–	–	–	–
B5	12.6%	9.1%	–	–	–	16.7 nmol/L	117.2 nM·h	4.2 h	2.0 h	–	–	–	–
B6	10.9%	19.5%	–	–	–	20.8 nmol/L	82.2 nM·h	4.2 h	0.7 h	–	–	–	–
B7	13.9%	21.8%	18.3%	35.0%	statistically significantly enhanced BW loss efficacy than Semaglutide	15.1 nmol/L	174.5 nM·h	7.4 h	3.3 h	790 nM·h	13 h	8 h	32.1 nmol/L
